The target of assay [1] is T1, CHI3L1-6his(pcDNA3.1，在293T细胞中过表达的完整人CHI3L1) (human, UniProt P36222 22-383).
T1 construct: whole, on cells; CBA / immunofluorescence target: transfected, acetone-fixed 293T cells; also called 完整CHI3L1序列; 过表达CHI3L1蛋白的细胞; not shown: 6his tag
Description: CBA, immunofluorescence on acetone-fixed 293T cells overexpressing CHI3L1-6his.

Assay [2] deals with T1, CHI3L1-6his(pcDNA3.1，在293T细胞中过表达的完整人CHI3 …. Description: immunofluorescence on transfected, acetone-fixed 293T cells.
In assay [3] the target is T2, Q CHI3L1-329-346-6his(缺失329-346片段的CHI3L1构建体) (human, UniProt P36222 22-383).
T2 construct: Deletion construct, overexpressed in 293T cells from pcDNA3.1, acetone-fixed; not shown: 6his tag
The assay is described as above.

B1: 人CHI3L1单克隆抗体1D7(杂交瘤细胞1D7-C5-D5培养上清) (antibody, V domains shown)
VH: EVQLLETGGGLVQPGGSRGLSCEGSGFTFSGFWMSWVRQTPGKTLEWIGDINSDGSTINYAPSIKDRFTIFRDNDKSTLYLQMSNVRSEDTATYFCMRYKGAHWGQGTLVTVSA
VL: not shown
notes: Tested as culture supernatant; also called 1D7杂交瘤细胞上清; 阳性杂交瘤细胞上清
For B1, the binding result in assay [1] is given as “binds”.

B2: 重组单克隆抗体1D7(1D7m2a + 1D7mk，293T细胞上清) (antibody, V domains shown)
VH: EVQLLETGGGLVQPGGSRGLSCEGSGFTFSGFWMSWVRQTPGKTLEWIGDINSDGSTINYAPSIKDRFTIFRDNDKSTLYLQMSNVRSEDTATYFCMRYKGAHWGQGTLVTVSA
VL: not shown
notes: VH cloned into pFUSE-CHIg-m2a (mouse IgG2a constant region of the vector), VL into pFUSE2ss-CLIg-mk (mouse kappa); Tested as 293T culture supernatant; also called 重组1D7单克隆抗体; 重组单克隆细胞上清
In the case of B2, the results for the binding result in assay [2] and in assay [3] were “binds” and “no binding”, respectively.
